For series [1] the following is noted: pH 5; cited from earlier work.
A further series concerns influenza A (H1N1) virus. The series is classed as in vivo, ferrets. To be noted: for inflammatory response of infected ferrets: topical administration.
Series [2] deals with acute OVA challenge mouse model of asthma. The series is described as follows: PAS staining for lung mucus in OVA mouse model of asthma. The arrangement: species or system BALB/c mice. To be noted: in vivo.
For series [3], the system named is guinea pig model of allergic asthma. Put plainly: allergen-induced early asthmatic reaction (PenH) in conscious unrestrained guinea pigs. To be noted: for decrease of early asthmatic reaction (PenH) after OVA aerosol: OVA guinea pigs; for basal PenH: guinea pig, in vivo, 0.3 mg/kg. The series is classed as in vivo.
Series [4] concerns acute OVA challenge mouse model of asthma. The class given is in vivo, BALB/c mice. To be noted: 0.6 mg/kg intranasal one hour prior to each OVA challenge; day 31.
Series [5] has as its system guinea pig model of allergic asthma. The series is described as follows: cell count and differentiation in broncho-alveolar lavage fluid of guinea pigs. The class given is in vivo.
Series [6] deals with acute OVA challenge mouse model of asthma. Put plainly: blood eosinophil counts in OVA mouse model of asthma. The class given is in vivo, BALB/c mice. Conditions: 0.6 mg/kg intranasal.
In another series the target is T1, M3 muscarinic receptor (Homo sapiens, UniProt P20309).
T1 construct: host or cells: chem-1 cells
T1 sequence (P20309 whole entry): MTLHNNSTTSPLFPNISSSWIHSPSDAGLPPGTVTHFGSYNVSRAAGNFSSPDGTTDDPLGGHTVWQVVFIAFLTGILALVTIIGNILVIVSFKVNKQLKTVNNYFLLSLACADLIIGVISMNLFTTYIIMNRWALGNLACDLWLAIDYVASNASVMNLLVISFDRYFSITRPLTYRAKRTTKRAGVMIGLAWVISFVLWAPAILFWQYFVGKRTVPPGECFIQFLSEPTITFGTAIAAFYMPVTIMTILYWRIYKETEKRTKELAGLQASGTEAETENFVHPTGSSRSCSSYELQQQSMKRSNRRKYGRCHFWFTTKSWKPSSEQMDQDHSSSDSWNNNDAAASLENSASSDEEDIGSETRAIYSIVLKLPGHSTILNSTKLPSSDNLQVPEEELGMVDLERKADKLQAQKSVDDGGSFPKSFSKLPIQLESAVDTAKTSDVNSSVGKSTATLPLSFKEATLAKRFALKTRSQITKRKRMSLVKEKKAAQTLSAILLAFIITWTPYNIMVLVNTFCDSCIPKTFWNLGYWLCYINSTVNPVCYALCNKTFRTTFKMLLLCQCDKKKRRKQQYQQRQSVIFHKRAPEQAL
Put plainly: M3 muscarinic receptor signaling in chem-1 cells (intracellular calcium). The series is classed as cell-based. To be noted: 0.4, 2 or 10 μM.

The next series addresses M2 muscarinic receptor (Homo sapiens, UniProt P08172). Put plainly: M2 muscarinic receptor signaling in chem-1 cells (intracellular calcium). The class given is cell-based. Conditions: 0.4, 2 or 10 μM. A general note: A change in cytosolic calcium serves as a functional read-out for many receptors and channels.

Where “and” joins values, the source holds several entries; their conditions need not be identical. Identical values can stand only once. Entries after “also recorded” stand apart in the source; their conditions may differ. Like-named read-outs stand apart in the source and are kept apart here.

Chain of M2 muscarinic receptor (P08172 whole entry): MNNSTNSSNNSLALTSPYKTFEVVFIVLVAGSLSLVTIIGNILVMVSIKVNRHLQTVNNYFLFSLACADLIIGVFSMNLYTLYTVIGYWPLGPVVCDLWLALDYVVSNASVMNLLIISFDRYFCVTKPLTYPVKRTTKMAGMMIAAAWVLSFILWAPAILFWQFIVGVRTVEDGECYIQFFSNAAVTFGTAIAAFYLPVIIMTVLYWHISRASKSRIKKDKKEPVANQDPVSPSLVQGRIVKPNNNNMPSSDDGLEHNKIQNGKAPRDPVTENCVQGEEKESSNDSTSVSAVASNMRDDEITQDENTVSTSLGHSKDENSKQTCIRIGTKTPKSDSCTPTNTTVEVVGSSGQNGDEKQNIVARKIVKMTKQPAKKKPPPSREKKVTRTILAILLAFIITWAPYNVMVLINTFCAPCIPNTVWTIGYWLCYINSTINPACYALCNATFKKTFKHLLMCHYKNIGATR

B1: A. viscosus: bacterial sialidase enzyme from Actinomyces viscosus (SEQ ID NO:12) (protein, listed as Actinomyces viscosus)
chain: MTSHSPFSRRRLPALLGSLPLAATGLIAAAPPAHAVPTSDGLADVTITQVNAPADGLYSVGDVMTFNITLTNTSGEAHSYAPASTNLSGNVSKCRWRNVPAGTTKTDCTGLATHTVTAEDLKAGGFTPQIAYEVKAVEYAGKALSTPETIKGATSPVKANSLRVESITPSSSQENYKLGDTVSYTVRVRSVSDKTINVAATESSFDDLGRQCHWGGLKPGKGAVYNCKPLTHTITQADVDAGRWTPSITLTATGTDGATLQTLTATGNPINVVGDHPQATPAPAPDASTELPASMSQAQHLAANTATDNYRIPAITTAPNGDLLISYDERPKDNGNGGSDAPNPNHIVQRRSTDGGKTWSAPTYIHQGTETGKKVGYSDPSYVVDHQTGTIFNFHVKSYDQGWGGSRGGTDPENRGIIQAEVSTSTDNGWTWTHRTITADITKDKPWTARFAASGQGIQIQHGPHAGRLVQQYTIRTAGGAVQAVSVYSDDHGKTWQAGTPIGTGMDENKVVELSDGSLMLNSRASDGSGFRKVAHSTDGGQTWSEPVSDKNLPDSVDNAQIIRAFPNAAPDDPRAKVLLLSHSPNPRPWSRDRGTISMSCDDGASWTTSKVFHEPFVGYTTIAVQSDGSIGLLSEDAHNGADYGGIWYRNFTMNWLGEQCGQKPAEPSPAPSPTAAPSAAPTEKPAPSAAPSAEPTQAPAPSSAPEPSAAPEPSSAPAPEPTTAPSTEPTPAPAPSSAPEQTDGPTAAPAPETSSAPAAEPTQAPTVAPSVEPTQAPGAQPSSAPKPGATGRAPSVVNPKATGAATEPGTPSSSASPAPSRNAAPTPKPGMEPDEIDRPSDGTMAQPTGGASAPSAAPTQAAKAGSRLSRTGTNALLILGLAGVAVVGGYLLLRARRSKN
In the case of B1, in series [1], the stability in buffer result is “stable”.

B2: AR-AvCD: recombinant AR-AvCD sialidase fusion protein made from Construct #2 (FIG. 5, SEQ ID NOs: 18 & 19) (protein)
chain: MVKRKKKGGKNGKNRRNRKKKNPGDHPQATPAPAPDASTELPASMSQAQHLAANTATDNYRIPAITTAPNGDLLISYDERPKDNGNGGSDAPNPNHIVQRRSTDGGKTWSAPTYIHQGTETGKKVGYSDPSYVVDHQTGTIFNFHVKSYDQGWGGSRGGTDPENRGIIQAEVSTSTDNGWTWTHRTITADITKDKPWTARFAASGQGIQIQHGPHAGRLVQQYTIRTAGGAVQAVSVYSDDHGKTWQAGTPIGTGMDENKVVELSDGSLMLNSRASDGSGFRKVAHSTDGGQTWSEPVSDKNLPDSVDNAQIIRAFPNAAPDDPRAKVLLLSHSPNPRPWSRDRGTISMSCDDGASWTTSKVFHEPFVGYTTIAVQSDGSIGLLSEDAHNGADYGGIWYRNFTMNWLGEQCGQKPAEGADYGGIWYRNFTMNWLGEQCGQKPAE
B2: in the series on influenza A (H1N1) virus (8 infected treated ferrets), the “reduction of mean AUC of nasal protein concentrations vs vehicle-treated infected animals” value is reported as “approximately 40%”. Further, the “mean AUC of nasal protein concentrations” value with influenza A (H1N1) virus (8 infected treated ferrets that shed virus, vehicle 4.48) is given as 2.68 arbitrary units. In the series on influenza A (H1N1) virus (in vivo), the “reduction of AUC value for cell counts vs vehicle-treated infected animals” value is “approximately 3 fold”. The “AUC value for inflammatory cell counts in nasal washes” value in the series on influenza A (H1N1) virus (infected treated ferrets, vehicle 1965) stood at 674 arbitrary units. The “inflammatory response of infected ferrets” value with influenza A (H1N1) virus was “reduces the inflammatory responses”; with influenza A (H1N1) virus (listed as fusion protein), “the inflammatory response was reduced”. Besides, the “number of inflammatory cells in the nasal washes” value with influenza A (H1N1) virus (vs vehicle-treated infected animals) was “significant reduction in the number of inflammatory cells”.

B3: DAS181: fusion protein comprising a catalytic domain of a sialidase, and an anchoring domain (SEQ ID NO:21) (protein)
chain: MGDHPQATPAPAPDASTELPASMSQAQHLAANTATDNYRIPAITTAPNGDLLISYDERPKDNGNGGSDAPNPNHIVQRRSTDGGKTWSAPTYIHQGTETGKKVGYSDPSYVVDHQTGTIFNFHVKSYDQGWGGSRGGTDPENRGIIQAEVSTSTDNGWTWTHRTITADITKDKPWTARFAASGQGIQIQHGPHAGRLVQQYTIRTAGGAVQAVSVYSDDHGKTWQAGTPIGTGMDENKVVELSDGSLMLNSRASDGSGFRKVAHSTDGGQTWSEPVSDKNLPDSVDNAQIIRAFPNAAPDDPRAKVLLLSHSPNPRPWSRDRGTISMSCDDGASWTTSKVFHEPFVGYTTIAVQSDGSIGLLSEDAHNGADYGGIWYRNFTMNWLGEQCGQKPAKRKKKGGKNGKNRRNRKKKNP
For B3, the “PAS staining of airway epithelium (lung mucus) vs OVA challenged mice” value in [2] is reported as “statistically significant reduction in PAS staining; also recorded: significantly reduced PAS staining”. For the same molecule, the “decrease of early asthmatic reaction (PenH) after OVA aerosol” value is roughly 30% in [3] (treated on day 15, vs sodium sulfate) and “not on day 20” in [3] (treated on day 20). Further, the “basal PenH” value was 0.25±0.01 and 0.28±0.01 in series [3]; 0.27±0.02 and 0.31±0.03 in series [3] (listed as Fludase®). Also, the “Penh at 48 mg/ml Mch vs OVA challenged mice” value in [4] was “reduction in Penh”. The “number of eosinophils in BAL fluid” value in [5] (guinea pig, in vivo) is given as “restore the number of eosinophils up to historical control levels”. Further, in series [5] (guinea pig, in vivo), the “number of lymphocytes in BAL fluid” value is recorded as “decreased”. Further, the “number of all inflammatory cells (macrophages, lymphocytes, neutrophils and eosinophils)” value in series [5] (inflammation caused by SOD or OVA) is listed as “significantly decreased”. The “neutrophil influx into the lungs (BAL)” value in series [5] (saline and OVA groups) is “completely prevented this influx”. The “total number of cells in BAL fluid” value in series [5] (saline and OVA guinea pigs) is reported as “decreases the total number of cells”. For the same molecule, in series [5] (treatment on day 15 and 20, saline and OVA guinea pigs), the “total number of macrophages in BAL fluid” value was “strongly decreased”. The “blood eosinophils vs OVA challenged mice” value in series [6] is given as “significantly reduced blood eosinophils”. For the same molecule, the “effect on potency of agonist-mediated M3 receptor signaling” value with M3 muscarinic receptor is given as “decreased the potency of agonist-mediated M3 receptor signaling”. Besides, the “effect on potency of agonist-mediated M2 receptor signaling” value with M2 muscarinic receptor is listed as “increased the potency of agonist-mediated M2 receptor signaling”.

The record behind these values is patent US8398971B2, “Methods, compounds, and compositions for treatment and prophylaxis in the respiratory tract” (NexBio, Inc., priority 2009, dated 2013).
